Like-named read-outs stand apart in the source and are kept apart here.

In assay [1] the target is T1, A/South Carolina/1/1918 (H1N1) hemagglutinin ectodomain (Influenza A virus A/South …). As to the kind of experiment: yeast surface display titration.
For assay [2], the target named is T1, A/South Carolina/1/1918 (H1N1) …. As to the kind of experiment: yeast surface display titration. This is another data set of the same source.

B1: HB80.3_s4_E82 (designed binder)
chain: MASTRGSGRPWKFSENVAFEIALSFTNKDTPDRWAKVARYVRGRTPEEVKKHYE
Consider B1, for which the binding result in assay [1] was “binds”.

B2: HB80.3_s4_E94 (designed binder)
chain: ASTRGSGRPWKFSENVAFELALYFTNKDTPDRWAKVARYVKGRTPEEVKKHYE
Take B2: the binding result in assay [1] is given as “binds”.

B3: HB36.4_s4_E11 (designed binder)
chain: MSNAMDGQQLNRLLLEWIGAWDPFGLGKDAYDVEADAVLKAVYETNSAFDLAMRIHWIYNFAFKRKIPFVHAQKLARRLLELKQAASSPLP
In the case of B3, in assay [2], the binding result is recorded as “binds”.

For the origin of these results see patent US20150038408A1 (University of Washington, published 2015).
